# Source: the supplement of paper PMC12764529
# ± gives the half width of the 95% confidence interval.
# Assay: folding stability dG unfold from chymotrypsin proteolysis; higher = more stable
# Outline: (§1)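 Designed mini-proteins with no cysteine and under 80 residues were kept only if AlphaFold2 dimer inter-PAE was above 15. In a PA-tagged cDNA display construct, they were digested with trypsin and chymotrypsin and then sequenced. K50 was inferred by Bayesian fitting of counts, and unfolding free energy was derived per protease or combined against a sequence-predicted unfolded-state K50 and a shared folded-state K50.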
row,Sequence,folding stability dG unfold
1,SAGGKPKEIKIKVEVEEKEVNGKKYLVVKIELEVDGKKIEIELVVEMSEEEKEKAKKLAEELLKKLKSAGGS [r8_480_TrROS_Hall],2.77 ± 0.22 kcal/mol
2,SAGFLGFGIEPHPNGWFKIEIMVMFPWPGGWFMFSIDITIPIVPIEPPPPPPVVEPKKENGKPKEWKYDSAG [r5_169_TrROS],3.38 ± 0.25 kcal/mol
3,SAGGLIIPEEYEIVEKKAEILPDGSLRYTFILRPKSGELLLVEIRYPPDGSIEIEARRLTPEELKKALSAGG [r13_773_TrMRF],3.71 ± 0.045 kcal/mol
4,SAGGSAGGSKKKKKKKKKIKVLIRNKKTGKWFEAEAEVVDGELYIKVNGKIYKIKGPVEIELVSAGGSAGGS [r12_683_TrROS_Hall],3.686 ± 0.019 kcal/mol
5,SAGGSAGGSAGGTKTYTITNEDGSKITIEEVDGKYVITYPNGEKKEIEGMTLEELLKALSAGGSAGGSAGGS [r10_569_TrROS_Hall],4.26 ± 0.21 kcal/mol
6,SPVEIVSEETDPNGGTKYKTYSNPQADVRIEVAYPSSGITITVHFPDSTSTKSFSSEADAEKEVVRLAASSA [r9_527_JUSTAS],0.944 ± 0.15 kcal/mol
7,SAGGSAGGSGPVLLVRVRPDGTREILDVLPPDEPVENLPAGEFREFRLIPTESLEDALRKALASAGGSAGGS [r12_452_TrMRF],0.304 ± 0.37 kcal/mol
8,SAKPPKVEVKTVRVTIKVRNKDGSTYTITKEVTEVRVEVDGKTVTVTSIKITIELPPGITEVEIKIEKVSAG [r14_892_TrROS_Hall],4.84 ± 0.29 kcal/mol
9,SAGGPGAAPTSTTVTVTIHLPMPPDVSDEEAKALAKERIKEEFPPSYTIESITVDPATNVVTATVKVASAGG [r19_81_JUSTAS],2.88 ± 0.1 kcal/mol

# Assay: folding stability dG unfold from trypsin proteolysis; higher = more stable
# Outline: as §1
row,Sequence,folding stability dG unfold
1,SAGGKPKEIKIKVEVEEKEVNGKKYLVVKIELEVDGKKIEIELVVEMSEEEKEKAKKLAEELLKKLKSAGGS [r8_480_TrROS_Hall],2.6 ± 0.21 kcal/mol
2,SAGFLGFGIEPHPNGWFKIEIMVMFPWPGGWFMFSIDITIPIVPIEPPPPPPVVEPKKENGKPKEWKYDSAG [r5_169_TrROS],1.91 ± 0.13 kcal/mol
3,SAGGLIIPEEYEIVEKKAEILPDGSLRYTFILRPKSGELLLVEIRYPPDGSIEIEARRLTPEELKKALSAGG [r13_773_TrMRF],3.13 ± 0.076 kcal/mol
4,SAGGSAGGSKKKKKKKKKIKVLIRNKKTGKWFEAEAEVVDGELYIKVNGKIYKIKGPVEIELVSAGGSAGGS [r12_683_TrROS_Hall],2.38 ± 0.043 kcal/mol
5,SAGGSAGGSAGGTKTYTITNEDGSKITIEEVDGKYVITYPNGEKKEIEGMTLEELLKALSAGGSAGGSAGGS [r10_569_TrROS_Hall],4.22 ± 0.58 kcal/mol
6,SPVEIVSEETDPNGGTKYKTYSNPQADVRIEVAYPSSGITITVHFPDSTSTKSFSSEADAEKEVVRLAASSA [r9_527_JUSTAS],0.339 ± 0.086 kcal/mol
7,SAGGSAGGSGPVLLVRVRPDGTREILDVLPPDEPVENLPAGEFREFRLIPTESLEDALRKALASAGGSAGGS [r12_452_TrMRF],-0.44 ± 0.54 kcal/mol
8,SAKPPKVEVKTVRVTIKVRNKDGSTYTITKEVTEVRVEVDGKTVTVTSIKITIELPPGITEVEIKIEKVSAG [r14_892_TrROS_Hall],3.61 ± 0.49 kcal/mol
9,SAGGPGAAPTSTTVTVTIHLPMPPDVSDEEAKALAKERIKEEFPPSYTIESITVDPATNVVTATVKVASAGG [r19_81_JUSTAS],3.32 ± 0.15 kcal/mol

# Assay: folding stability dG unfold (combined trypsin and chymotrypsin); higher = more stable
# Outline: as §1
row,Sequence,folding stability dG unfold
1,SAGGKPKEIKIKVEVEEKEVNGKKYLVVKIELEVDGKKIEIELVVEMSEEEKEKAKKLAEELLKKLKSAGGS [r8_480_TrROS_Hall],2.82 ± 0.4 kcal/mol
2,SAGFLGFGIEPHPNGWFKIEIMVMFPWPGGWFMFSIDITIPIVPIEPPPPPPVVEPKKENGKPKEWKYDSAG [r5_169_TrROS],2.74 ± 0.51 kcal/mol
3,SAGGLIIPEEYEIVEKKAEILPDGSLRYTFILRPKSGELLLVEIRYPPDGSIEIEARRLTPEELKKALSAGG [r13_773_TrMRF],3.56 ± 0.074 kcal/mol
4,SAGGSAGGSKKKKKKKKKIKVLIRNKKTGKWFEAEAEVVDGELYIKVNGKIYKIKGPVEIELVSAGGSAGGS [r12_683_TrROS_Hall],3.3 ± 0.048 kcal/mol
5,SAGGSAGGSAGGTKTYTITNEDGSKITIEEVDGKYVITYPNGEKKEIEGMTLEELLKALSAGGSAGGSAGGS [r10_569_TrROS_Hall],4.35 ± 0.18 kcal/mol
6,SPVEIVSEETDPNGGTKYKTYSNPQADVRIEVAYPSSGITITVHFPDSTSTKSFSSEADAEKEVVRLAASSA [r9_527_JUSTAS],0.711 ± 0.11 kcal/mol
7,SAGGSAGGSGPVLLVRVRPDGTREILDVLPPDEPVENLPAGEFREFRLIPTESLEDALRKALASAGGSAGGS [r12_452_TrMRF],-0.00342 ± 0.21 kcal/mol
8,SAKPPKVEVKTVRVTIKVRNKDGSTYTITKEVTEVRVEVDGKTVTVTSIKITIELPPGITEVEIKIEKVSAG [r14_892_TrROS_Hall],4.47 ± 0.47 kcal/mol
9,SAGGPGAAPTSTTVTVTIHLPMPPDVSDEEAKALAKERIKEEFPPSYTIESITVDPATNVVTATVKVASAGG [r19_81_JUSTAS],3.11 ± 0.16 kcal/mol
